Assay results as given in the domain aggregation screens of Martell et al. (2025).

Assay: soluble fraction after stress (log2 fold change); higher = more stays soluble; pooled small domains, quantitative proteomics
Settings: stress: pH 4
In short: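 Aggregation propensity is estimated from the fold change in each domain's soluble amount after acid stress. Pooled small-domain libraries were stressed at pH 4, and higher log2 values mean more stayed soluble.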
With “HMGGYVVVGDKDGFWSVVSTPVSKAKAEELLKDTTFPKGEKGKIVSVAEAMSHKKVIGKEYLESGGT” the “soluble fraction (log2)” value was 0.0926.
With “HMAEQLGNSRTANMVMLGAMIERTGVISIDSAMEALKATFGPKKEHLLPINRQAMEAGAAAARAV” the “soluble fraction (log2)” value was -0.517.
For “HMSDPELNDNEKKIYDIIFNKKSMDLTELKNLSELSNKQWDKGIKSLSKQDFVKVIKTEEALIVELV”, the “soluble fraction (log2)” value was -0.126.
For “HMANKLTSTNLAKQHKMGLSEMYAELMNSGYLIEKDGKYELTPLGISIGGESKPNRYKKGEFYFLWPSDIS”, the “soluble fraction (log2)” value was 0.22.
In the case of “HMIQTKKVTFTVEPTVNFEKINISGIEFKINSGSSITAIYEKNSHNFDEVLDFLKQKGVKILDIVTED”, the “soluble fraction (log2)” value was -0.824.
In the case of “HMDDGALQIRLGPQALQQRLDKLGYSLNKEDLDLVYQYFLHSADSKGAVYDQELRELMGEAGVE”, the “soluble fraction (log2)” value was -0.607.
For “HMQKTVLAASVYERMKERIMDQYYPPGERLNIDALAIDLAVSPTPIREALARLAAERLITFEAYKGYRVSP”, the “soluble fraction (log2)” value was -0.637.
For “HMDAMGAVGIARAFISAGERGGDISDGLEHMHGKLLRLSSLMYTRSGKKMAARRHELLSSFVQALEEEIK”, the “soluble fraction (log2)” value was -0.0591.
For “HMDAVSYTQFMQDAKAGRIKKVIVHQSGILDVTTTEGRRFNLTSPGDLWMVGDLVKDGVDVVGAP”, the “soluble fraction (log2)” value was 0.139.
In the case of “HMADVSPEAQHKMVEAFAQFGVTKEHIEQRIQRRLDAIQPAQMVTLKRIFASLRDGMSTPAEWFE”, the “soluble fraction (log2)” value was -1.03.
In the case of “HMRVSNADALIGRRGKANSDIRRGDYGWVAIDGDVWKSKLADDITEDIPMGAIVEVLSRDSIILTVKP”, the “soluble fraction (log2)” value was -1.08.
For “HMTYSSESVRYRIKSLIDNETIDEILSDDKIVNILKSQGIDVARRTVAKYREAMGLASSIQRRREKKSA”, the “soluble fraction (log2)” value was -0.0241.
For “HMQLSQLLQPFDINAFKGHPLYTEENVKMFNDYTNRVKEWTKGTPYEQYWVTKEGQPTMLAWDSFKK”, the “soluble fraction (log2)” value was -1.07.
For “HMEPLKLGDATGDGKINLQDVLEMQKHMAGILVLKGKFFTAADVNGNGKIELVDVLSVQKYLAGVTAEV”, the “soluble fraction (log2)” value was -0.0932.
With “HMGKRKDFTYTGNYFSEYKNQTFPSLSSFLKLVGKYENYGTIKRRVRFGWDIDEAILRENIN” the “soluble fraction (log2)” value was -0.231.
With “HMRQQQISAAIKTSVNGTVDYYVRRLPERDPRGDFLEVWDDLQKVIQAAHGIQVSHDELYEYFRRLK” the “soluble fraction (log2)” value was -1.19.
With “HMPLTEMAVRKHLSAELAQKGYTIDPRALEILLQRTNTNLTAIANELPKLLLVAEDKQITVNEVSAM” the “soluble fraction (log2)” value was -0.1.
For “HMEGVSSESVKEMLKSIIDGEDPHNPVSDQRITDILNSRGINISRRTVAKYRDELGIASSSRRKRY”, the “soluble fraction (log2)” value was 0.112.
For “HMFDFNNLSSLSDVELSVYRFVVNNPEKVAYMRVRDIAQKTHVANSSVMRFVHKIGFASFPEFKAYLKNIN”, the “soluble fraction (log2)” value was -0.0916.
In the case of “HMKLTTRQTEIINIVKAEQPISGEKIAQNLGLSRATLRNDLSILTMTGLLDAKPKVGYFYTGQ”, the “soluble fraction (log2)” value was 0.0805.
For “HMNGAVAEQARKQLMAALKASEFIAEEKLDEWLDALALPEDKRTAIVDAVDELDYEEAISELEN”, the “soluble fraction (log2)” value was 0.0531.
In the case of “HMNVYEVKFGDTLDEIIKTYLFDIPVKKSILRQAVILANPHAFRRNNPHWMYSDRQLKLPELQDIRRAIF”, the “soluble fraction (log2)” value was -0.74.
For “HMQDEAQLSMSNKYIFEGNSIVKDNFIEAEKKYRLGVSAKPNNAVGSYNLANAYYNSKLYDEAMLRLL”, the “soluble fraction (log2)” value was -0.179.
With “HMRQYPSGVFKEEGVKAVYIHAGTPFLVIAAQYKIPLARLFEWNNLLPSTEARISQVIYLERPG” the “soluble fraction (log2)” value was 0.238.
With “HMRSVLSDEIYLLIRKMIFNYEILPGAKVNIDALAKKLDVSQTPVREALSRLESDGLIVKEPLKGFRATD” the “soluble fraction (log2)” value was -0.239.
With “HMGILPDDVKLNIKEAKKIGFPIMLKAIHGGGGRGMMIVQSEDEFADAMKITKTEAKNSFGNGDLYFEKFF” the “soluble fraction (log2)” value was 0.0153.
For “HMKGWPDREQAEKIWQQGIDYAIEHHTMSPQIVKEYIFHTQGIARSAALIAARLPDMDTEKAYVLGLLHD”, the “soluble fraction (log2)” value was 0.0199.
For “HMTRETTQAWWEARQTLPSGEQRSAASLSQEASHVRRFYRWAMQQGLTDRNPADWLPDVRQK”, the “soluble fraction (log2)” value was -0.062.
With “HMFTSVDVAPDLRTAKVFYSVLGRKKSDKEINIAINQKRKAFKKFMGPELHLKNIPDLHFYYD” the “soluble fraction (log2)” value was 0.115.
With “HMEVKVSGHLEAIGGVYHMKLSWIDDAGKRRRKSKSTGLAERGNKKRANDMLIDFMREQEAEIAASGD” the “soluble fraction (log2)” value was at least 0.43.
In the case of “HMSDDIPVHYRLDVNDAARALKLLTDNGFSAETAESGLNVYMTRLQSAEAARLLVENNIAVYGLTAV”, the “soluble fraction (log2)” value was -0.196.
In the case of “HMNSSLLGKRIKSLREDHDLTQKELSLMIGLTPKMISFYENNQRTPPLDILLKLAKIFEVSVDYLIGYA”, the “soluble fraction (log2)” value was -0.0642.
With “HMLTYPEHVRLRMIELRKTRSLSQSEFGTYLGLSYQTISSLELGRHEWSLAHIQTALLRFELPPNYF” the “soluble fraction (log2)” value was -1.82.
With “HMSSLTQREYEIAELVADGLSNKAIAAELSISHTTAARHVANIMNKLGFNSRSQIAAWVADRAQG” the “soluble fraction (log2)” value was -0.46.
With “HMAPPDFTTFMRNYQDMVYSTAVRLIGNETQAEDIAQEVFIKAHAHFENLRTSPSAGGWLKTVATNLSIN” the “soluble fraction (log2)” value was -0.949.
With “HMISSRDAAVIGLVENIQRAQLNAIDESSGFKHLMETYNLESKEIALLVGKSRSYVSNSLRLSK” the “soluble fraction (log2)” value was -0.235.
For “HMAENTKKWDETGRRYRSYIKLEKRLSENTVESYMRDYMQFAHFILRQWDVAPHKVEPQMVERYMAWLYER”, the “soluble fraction (log2)” value was -0.806.
With “HMLPGERFKVKIAQAGKEKKQGIGYLNDGTMVVIENGIEKVGEEVEAVVIKVIQSSAGKIIFSEVAK” the “soluble fraction (log2)” value was 0.0394.
In the case of “HMEDSHIYPVSFNGKMRFKLELPVSMNKKEIEEVVLQHEDAQKWLNGQNPKKVIVVPKRIINIV”, the “soluble fraction (log2)” value was 0.308.
With “HMLMRSPDFLIGWFQNLVAKRETFNDQVQAKNLIEAGKQHIQGEDFDRLLEVNRRLFSLLPQREQE” the “soluble fraction (log2)” value was -1.27.
With “HMHGEAVVVPNVKGLPMRQAENEIYKQSLKAVAIDSSYVKGMPPGAILEQNPAGGSKVKKGRTVYLTINMD” the “soluble fraction (log2)” value was 0.0278.
In the case of “HMLPISGDDRDALDMAALILKQYDSLPILKEFANVVTKLQTVLDGVVSNSIEARRQMIQFEE”, the “soluble fraction (log2)” value was -0.48.
For “HMESNDSNIEDDFYEGLKSMRKGDLKMSVVFFTRVIEKKPTFAEAWNRRATVYYMLGKFDKSMFDINETLK”, the “soluble fraction (log2)” value was -0.17.
In the case of “HMRSIMAVSNYRHKKILEMVYQRKSVSADELAAEFGVSKITIRRDLDTLAMDKLLERTRGGAISISD”, the “soluble fraction (log2)” value was -0.128.
With “HMNVKVSVDDIARPGLMASGRVTFADGNRGMWYVDEMGRLGIDPEVEGYQPSEADIQAFQRELQSVMES” the “soluble fraction (log2)” value was -0.927.
With “HMAEPLYKQVKNKIIQNLTSDEWKPGSVIPSETKLAETYGVGVSTIRMAIGELVAARILIRRQGKGTFVSS” the “soluble fraction (log2)” value was 0.238.
With “HMGFAPEAAREEVAQLIGQRGRAVTVLRPSGQVEIAGRRFEATVEVGAVDAGDTIVVRGQTAFALLVEKAD” the “soluble fraction (log2)” value was 0.0812.
With “HMTRQPSAKEHAVLTAVKEGLRRDGRAPTVRALADMTGAASTSTVQRRISALIDLGLLRRTDGTLEVVE” the “soluble fraction (log2)” value was 0.202.
With “HMNQLSYTERRVLQVIEGGTTKTGEIEQALAAKMSRPTVHRALDALVGANRIHRLARGEYALGPAP” the “soluble fraction (log2)” value was 0.321.
In the case of “HMDKVEQLMQNPVIQEKMSEGDRELLRNASLVVLGRLEDDGSIIQRFVELFGEEAYERLKSELM”, the “soluble fraction (log2)” value was -0.865.
With “HMSNYIVELSSSEKIDDIDNNNNLINSFFSKSDSQWEYKLVFKNKNEMDVFVKKISTNNKIISYKTSS” the “soluble fraction (log2)” value was -0.106.
In the case of “HMLFVKLSDAQRSMFGAKLARDARIQSEYAQKLPSENYEVFGKALADMLLDETHFKTFYPLLVEYGYTQPK”, the “soluble fraction (log2)” value was -0.649.
In the case of “HMAAPLTDRETEVLTLLARGLINKQIAEELHIGLTTVITHRRNIMEKLRVRSLAELILRAVAAGYVDAGR”, the “soluble fraction (log2)” value was -0.78.
In the case of “HMWWTPIILRDALFGVQRFEDFQKNLDVSRATLSSRLTRLVDEGLMEKVEYQQHPVRHEYVLTEKGR”, the “soluble fraction (log2)” value was 0.194.
With “HMADLVYLRKRLQDAIAQLPEDMRTAYTLFQIARRSIREIAELTGASESLVKVRIHRAKGKLQELLEDLR” the “soluble fraction (log2)” value was -0.55.
